Usually Kd stands for the equilibrium constant for the complex coming apart. A lower Kd goes with tighter binding.

The target in assay [1] is human Kallikrein-2 6-His protein (soluble hK2) (human) (UniProt P20151). Briefly: SPR, antibody captured by anti-Fc, soluble hK2 injected.
Assay [2] has as its target HLA-A on cells (human) (UniProt P04439). Put plainly: flow cytometry, IgG1 mAb on cells expressing HLA-A. Background: In flow cytometry, cells or beads pass a laser one at a time.
The target of assay [3] is HLA-C on cells (human) (UniProt P10321). Put plainly: flow cytometry, IgG1 mAb on cells expressing HLA-C.
Assay [4] concerns the target HLA-B on cells (human) (UniProt P01889). Put plainly: flow cytometry, IgG1 mAb on cells expressing HLA-B.

B1: KL2B53 (antibody, human IgG4 S228P, kappa, F234A L235A, V domains shown)
VH: EVQLVESGGGVVQPGRSLRLSCVASGFTFSSYDIHWVRQAPGKGLEWVAIISYDGSKKDYTDSVKGRFTISRDNSKNTLYLQMDSLRVEDSAVYSCARESGWSHYYYYGMDVWGQGTMVTVSS
VL: DIVMTQSPSSLSASVGDRVTITCRASQDISNYLAWYQQKPGKVPKFLIYAASTLHSGVPSRFSGSGSGTDFTLTISSLQPEDVATYYCQKYNSAPYTFGQGTRLEIKR
On to B1, for which the equilibrium dissociation constant (Kd) in assay [1] was determined as 0.08 nM.

B2: KL2B413 (scFv-LH-Fc) (Fc fusion, not shown: a dimerising Fc or GST)
scFv: EIVLTQSPSFLSASVGDRVTITCRASQGISSYLSWYQQKPGKAPKLLIYATSTLQSGVPSRFSGSGSGTEFTLTISSLQPEDFATYYCQQLNSYPRTFGQGTKVEIKGGSEGKSSGSGSESKSTGGSEVQLVESGGGLVQPGGSLRLSCAASGFTFSSYWMTWVRQAPGKGLEWVANIKQDGSERYYVDSVKGRFTISRDNAKNSLYLQMNSLRAEDTAVYYCARDQNYDILTGHYGMDVWGQGTTVTVSS
B2 displayed a Kd in assay [1] of 34.3 nM.

B3: MHGB689 (antibody, human IgG1, kappa, V domains shown)
VH: QVQLQQSGPGLVKPSQTLSLTCVISGDSVSSNRAAWNWIRQSPSRGLEWLGRTYYRSKWYNDYAVSVKSRITINSDTSKNQISLQLNSVTPEDTAVYYCARVRPGIPFDYWGQGTTVTVSS
VL: DIQMTQSPDSLAVSLGERATINCESSQSVLFSSNKKNYLAWYQQKPGQPPKLLIYWASTRESGVPDRFSGSGSGTDFTLTINRLQAEDVAVYYCQQYNSTPWTFGQGTKVEIKR
In the case of B3, the GeoMean fluorescence (maximum value) is 2540 in assay [2], 266 in assay [3] and 5790 in assay [4].

B4: KL2B242 (antibody, human IgG4 S228P, lambda, F234A L235A, V domains shown)
VH: QVQLQESGPGLVKPSETLSLTCTVSGGSISSYYWSWLRQPAGSGLEWIGRLYVSGFTNYNPSLKSRVTLSLDPSRNQLSLKLSSVTAADTAVYYCAGDSGNYWGWFDPWGQGTLVTVSS
VL: SYELTQPPSVSVSPGETASITCSGDQLGENYACWYQQKPGQSPVLVIYQDSKRPSGIPERFSGSNSGNTATLTISGTQALDEADYYCQAWDNSIVVFGGGTKLTVLG
Regarding B4, the Kd in assay [1] was 0.04 nM.

B5: KL2B30 (antibody, human IgG4 S228P, kappa, F234A L235A, V domains shown)
VH: QVQLQESGPGLVKPSETLSLTCTVSGGSISSYYWSWIRQPPGKGLEWIGYIYYSGSTNYNPSLKSRVTISVDTSKNQFSLKLSSVTAADTAVYYCAGTTIFGVVTPNFYYGMDVWGQGTTVTVSS
VL: DIQMTQSPSFLSASVGDRVTITCRASQGISSYLAWYQQKPGKAPKFLIYAASTLQSGVPSRFSGSGSGTEFTLTISSLQPEDFATYYCQQLNSYPLTFGGGTKVEIKR
As to B5, the Kd in assay [1] came out at 0.46 nM.

B6: KL2B359 (scFv-LH-Fc) (Fc fusion, not shown: a dimerising Fc or GST)
scFv: EIVLTQSPATLSLSPGERATLSCRASESVEYFGTSLMHWYQQKPGQPPRLLIYAASNVESGIPARFSGSGSGTDFTLTISSVEPEDFAVYFCQQTRKVPYTFGGGTKVEIKGGSEGKSSGSGSESKSTGGSQVQLQESGPGLVKPSQTLSLTCTVSGNSITSDYAWNWIRQFPGKRLEWIGYISYSGSTTYNPSLKSRVTISRDTSKNQFSLKLSSVTAADTAVYYCATGYYYGSGFWGQGTLVTVSS
For B6, the Kd in assay [1] lay in the range of 0.7 to 1 nM.

The values above are taken from US20220411504A1.
